± gives the standard deviation.
Experiment: collision cross section of modified peptide (TIMS, N2, iRT-aligned); higher = larger / more extended gas-phase ion
In short: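 Collision cross section values rest on the Mason-Schamp equation applied to calibrated, run-aligned mobility data from synthetic peptides. Mobility (1/K0) was calibrated with three reference ions and aligned per run to the median iRT peptide deviation, and 1–3 technical replicates of the most abundant feature per charge state were averaged. Data came from a timsTOF Pro/HT in dda-PASEF mode (nitrogen, ~2.4 mbar) after a 120-min nanoflow C18 gradient at 60 °C.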

[1] = charge state: 2, modification: Butyryl
[2] = charge state: 3, modification: Butyryl
[3] = charge state: 3, modification: GlyGly (K)
[4] = charge state: 2, modification: hydroxyisobutyryl
[5] = charge state: 3, modification: hydroxyisobutyryl
[6] = charge state: 2, modification: Nitro (Y)
[7] = charge state: 3, modification: Nitro (Y)
[8] = charge state: 2, modification: Succinyl
[9] = charge state: 3, modification: Succinyl
[10] = charge state: 2, modification: GlyGly (K)
[11] = charge state: 2, modification: Malonyl
[12] = charge state: 2, modification: Crotonyl
[13] = charge state: 3, modification: Crotonyl

Substance: GHPGPPGPPGEQGLPGLAGK [_GHPGPPGPP(Hydroxyproline)GEQGLPGLAGK_]
- collision cross section (charge state: 2, modification: Hydroxyproline): 440.72 ± 0.83 Å²
- collision cross section (charge state: 3, modification: Hydroxyproline): 495.73 ± 18 Å²

Substance: SGNLTEDDKHNNAK [_SGNLTEDDK(Butyryl)HNNAK_]
- collision cross section [1]: 425.09 ± 0.55 Å²
- collision cross section [2]: 472.83 ± 2.7 Å²

Substance: INNFSADIKDSK [_INNFSADIK(Butyryl)DSK_]
- collision cross section [1]: 405.78 ± 0.75 Å²
- collision cross section [2]: 461.68 ± 3.2 Å²

Substance: DLSTVEALQNLKNLK [_DLSTVEALQNLK(Gluratylation)NLK_]
- collision cross section (charge state: 3, modification: Glutarylation): 545.2 Å²

Substance: FGTINIVHPKLGSYTK [_FGTINIVHPK(GlyGly (K))LGSYTK_]
- collision cross section [3]: 511.55 ± 1.9 Å²

Substance: FGDSRGGGGNFGPGPGSNFR [_FGDSR(Methyl (R))GGGGNFGPGPGSNFR_]
- collision cross section (charge state: 3, modification: Methyl (R)): 500.57 ± 1.4 Å²

Substance: LGNDFHTNKR [_LGNDFHTNK(hydroxyisobutyryl)R_]
- collision cross section [4]: 382.96 ± 0.86 Å²
- collision cross section [5]: 448.25 ± 2.7 Å²

Substance: GVEAVGSYAENQR [_GVEAVGSY(Nitro (Y))AENQR_]
- collision cross section [6]: 377.43 ± 0.17 Å²
- collision cross section [7]: 473.04 ± 0.83 Å²

Substance: SGNLTEDDKHNNAK [_SGNLTEDDK(Succinyl)HNNAK_]
- collision cross section [8]: 424.64 ± 1.1 Å²
- collision cross section [9]: 478.73 ± 2.5 Å²

Substance: GETASKLQSEISR [_GETASK(Formyl)LQSEISR_]
- collision cross section (charge state: 2, modification: Formyl): 382.6 ± 1.7 Å²

Substance: LLEEEDSKLK [_LLEEEDSK(GlyGly (K))LK_]
- collision cross section [10]: 386.87 ± 0.88 Å²
- collision cross section [3]: 453.7 ± 1.6 Å²

Substance: VNVEAPDVNLEGLGGKLK [_VNVEAPDVNLEGLGGK(Malonyl)LK_]
- collision cross section [11]: 463.09 ± 1.4 Å²

Substance: GYLGPEQLPDCLK [_GY(Nitro (Y))LGPEQLPDCLK_]
- collision cross section [6]: 396.71 ± 0.18 Å²

Substance: AGQKLIDVNHYAK [_AGQK(GlyGly (K))LIDVNHYAK_]
- collision cross section [10]: 433.04 ± 1.4 Å²
- collision cross section [3]: 485.98 ± 1.6 Å²

Substance: VLDSGAPIKIPVGPETLGR [_VLDSGAPIK(Crotonyl)IPVGPETLGR_]
- collision cross section [12]: 470.51 ± 1.1 Å²
- collision cross section [13]: 511.83 ± 1.6 Å²

Substance: SDSGKPYYYNSQTK [_SDSGK(hydroxyisobutyryl)PYYYNSQTK_]
- collision cross section [4]: 428.74 ± 0.3 Å²
- collision cross section [5]: 490.1 ± 3.9 Å²

Substance: VGLQVVAVKAPGFGDNR [_VGLQVVAVK(Succinyl)APGFGDNR_]
- collision cross section [8]: 449.31 ± 0.96 Å²
- collision cross section [9]: 542.29 ± 1.1 Å²

Substance: IDLPAENSNSETIIITGKR [_IDLPAENSNSETIIITGK(Acetyl (K))R_]
- collision cross section (charge state: 3, modification: Acetyl (K)): 569.63 Å²

Substance: SLKLNTAEDAK [_SLK(GlyGly (K))LNTAEDAK_]
- collision cross section [10]: 394.52 ± 0.87 Å²
- collision cross section [3]: 458.17 ± 2 Å²

Substance: ITLSKHQNVQLPR [_ITLSK(hydroxyisobutyryl)HQNVQLPR_]
- collision cross section [4]: 443.83 ± 0.038 Å²
- collision cross section [5]: 520.86 ± 27 Å²

Substance: DDSFLGKLGGTLAR [_DDSFLGK(Crotonyl)LGGTLAR_]
- collision cross section [12]: 415.37 ± 0.28 Å²
- collision cross section [13]: 492.69 Å²

Substance: TPNLYIYSKK [_TPNLYIYSK(Succinyl)K_]
- collision cross section [8]: 387.96 ± 0.52 Å²

Substance: GEYFGEK [_GEY(Phospho (Y))FGEK_]
- collision cross section (charge state: 2, modification: Phospho (Y)): 321.93 ± 0.65 Å²

Substance: SPPLPEHQKIPCNSAEPK [_SPPLPEHQK(GlyGly (K))IPCNSAEPK_]
- collision cross section [3]: 516.26 Å²

Substance: SGGYGGSRDYYSSR [_SGGYGGSR(Citrullination (R))DYYSSR_]
- collision cross section (charge state: 2, modification: Citrullination (R)): 397.63 ± 1.4 Å²

Substance: IPQEKCILQTDVK [_IPQEK(Malonyl)CILQTDVK_]
- collision cross section [11]: 431.57 Å²

Substance: SPSDSGYSYETIGKTTK [_SPSDSGYSYETIGK(Butyryl)TTK_]
- collision cross section [1]: 455.62 ± 0.51 Å²
- collision cross section [2]: 527.5 ± 2.7 Å²

Substance: GSLEKGSPEDK [_GSLEK(Gluratylation)GSPEDK_]
- collision cross section (charge state: 2, modification: Glutarylation): 373.46 ± 0.99 Å²

Substance: VHATSTYR [_VHATSTY(Nitro (Y))R_]
- collision cross section [6]: 330 ± 0.55 Å²
- collision cross section [7]: 400.02 ± 0.83 Å²

From the supplement of paper PMC10598134
